What was measured:
[1] = target: Photozipper (PZ), wild-type (Vaucheria frigida); assay: high-speed atomic force microscopy (HS-AFM); molecules on mica in Buffer-B (1 mM NaCl, 20 mM Tris-HCl pH 7, 1 mM DTT, 0.2 mM PMSF), room temperature, blue light illumination (450 nm, about 4.3 mW/mm^2); 13-50 nM protein; dimer to monomers
[2] = target: Photozipper (PZ), wild-type (Vaucheria frigida); assay: high-speed atomic force microscopy (HS-AFM); molecules on mica in Buffer-B (1 mM NaCl, 20 mM Tris-HCl pH 7, 1 mM DTT, 0.2 mM PMSF), room temperature, dark conditions (prepared under dim red light); 13-38 nM protein; dimer to monomers

average dimer lifetime [1]: 86 s | stoichiometry N [1]: 2 | time constant of the dimerization rate (38 nM PZ, after the start of blue light) [1]: 255 s | average dimer lifetime [2]: 8.1 s | stoichiometry N [2]: 2
Substance: Photozipper (PZ), wild-type (domain or fragment)

Source: article PMC9359980
